Literature values in PMC1297595.

Target: CD26 (Homo sapiens) (UniProt P27487)
UniProt P27487, sequence (P27487 39-766): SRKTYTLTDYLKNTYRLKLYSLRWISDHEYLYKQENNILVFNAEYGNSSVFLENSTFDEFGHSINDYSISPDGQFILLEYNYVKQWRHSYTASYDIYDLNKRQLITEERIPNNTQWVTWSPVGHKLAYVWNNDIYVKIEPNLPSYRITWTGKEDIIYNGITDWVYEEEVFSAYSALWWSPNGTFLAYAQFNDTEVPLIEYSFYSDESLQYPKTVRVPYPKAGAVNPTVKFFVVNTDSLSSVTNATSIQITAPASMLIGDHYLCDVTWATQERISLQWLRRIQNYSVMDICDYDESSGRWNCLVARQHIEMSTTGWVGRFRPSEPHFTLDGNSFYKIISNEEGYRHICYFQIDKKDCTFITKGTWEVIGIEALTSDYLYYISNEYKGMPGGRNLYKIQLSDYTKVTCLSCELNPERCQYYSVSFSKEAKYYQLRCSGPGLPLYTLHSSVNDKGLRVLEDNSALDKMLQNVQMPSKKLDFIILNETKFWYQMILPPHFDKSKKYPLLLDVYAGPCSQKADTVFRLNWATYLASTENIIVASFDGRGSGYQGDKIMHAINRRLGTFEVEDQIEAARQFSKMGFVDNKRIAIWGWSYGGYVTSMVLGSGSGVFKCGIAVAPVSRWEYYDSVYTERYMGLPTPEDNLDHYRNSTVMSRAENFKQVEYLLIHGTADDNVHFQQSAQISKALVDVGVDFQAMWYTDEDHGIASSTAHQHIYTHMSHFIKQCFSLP

For ADA (from UniProt P00813), the Kd is given as 65 nM.
